Measured values from patent publication US9963506B2, “Human-mouse chimeric anti-CD147 antibody with non-fucosylated glycosylation” (Fourth Military Medical University, priority 2015, dated 2018).

Target: T1, CD147 (Homo sapiens, UniProt P35613)
T1 construct: FFPE tissue sections from a selected panel of human cancer tissue arrays; tissue Chaoying Biotechnology Co., LTD, China; host or cells: human cancer tissue arrays (lung, ovarian, stomach, esophagus, breast, cervical, liver, colon cancer), FFPE
T1 sequence (P35613 22-269 isoform P35613-2 limits assumed): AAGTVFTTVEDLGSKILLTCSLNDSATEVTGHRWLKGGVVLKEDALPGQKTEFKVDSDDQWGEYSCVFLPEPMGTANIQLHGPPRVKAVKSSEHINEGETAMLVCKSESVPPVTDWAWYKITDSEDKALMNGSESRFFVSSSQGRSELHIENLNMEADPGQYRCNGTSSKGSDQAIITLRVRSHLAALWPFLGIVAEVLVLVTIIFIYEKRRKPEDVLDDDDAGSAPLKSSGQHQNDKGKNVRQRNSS
Experiment: Immunohistochemical detection of CD147 in human cancer tissue arrays (tissue cross reactivity)
Assay type: binding
Experimental: To test the specificity of Metuzumab (HcHAb18), tissue cross reactivity of Metuzumab was evaluated in FFPE tissue sections from a selected panel of human cancer tissue arrays (Chaoying Biotechnology Co., LTD, China.). Slides were microwaved for 10 min in 10 mM sodium citrated (pH 6.0), cooled for 30 min at 25° C. After incubating for 10 min in 3% H2O2 to block endogenous peroxidase, and blocking for 1 hr in 10% goat serum, slides were incubated overnight in a humidity chamber with biotinylated Metuzumab (30 μg/ml). Binding was visualized with streptavidin-conjugated peroxidase (ZsBio, China) and DAB detection system (ZsBio, China). Sections were analyzed using a bright-field microscope. The staining results were evaluated by 2 experienced pathologist in a blinded manner and classified into four categories: of 0 (no visible staining), 1+ (light brown), 2+ (mid-brown), and 3+ (dark brown), respectively, with the same intensity covering more than 75% of the staining area.

Metuzumab: human-mouse chimeric anti-CD147 IgG1, heavy chain SEQ ID NO: 4, light chain SEQ ID NO: 3, Mannose-5 glycoform lacking fucose and xylose
Positive rate (Colon cancer): 82.00%
Sensitivity response rate (Colon cancer): 82.00%
Specificity (Colon cancer): 84.00%
Tumor tissues specifically bound (positive/total) (Colon cancer): 41/50
Staining level 0 (no visible staining), number of tissues (Colon cancer, number 50): 9
Staining level 1+ (light brown), number of tissues (Colon cancer, number 50): 8
Staining level 2+ (mid-brown), number of tissues (Colon cancer, number 50): 26
Staining level 3+ (dark brown), number of tissues (Colon cancer, number 50): 7
Positive rate (Esophagus cancer): 93.75%
Sensitivity response rate (Esophagus cancer): 93.75%
Specificity (Esophagus cancer): 81.25%
Tumor tissues specifically bound (positive/total) (Esophagus cancer): 30/32
Staining level 0 (no visible staining), number of tissues (Esophagus cancer, number 32): 2
Staining level 1+ (light brown), number of tissues (Esophagus cancer, number 32): 6
Staining level 2+ (mid-brown), number of tissues (Esophagus cancer, number 32): 13
Staining level 3+ (dark brown), number of tissues (Esophagus cancer, number 32): 11
Positive rate (Liver cancer): 85.00%
Sensitivity response rate (Liver cancer): 85.00%
Specificity (Liver cancer): 75.00%
Tumor tissues specifically bound (positive/total) (Liver cancer): 17/20
Staining level 0 (no visible staining), number of tissues (Liver cancer, number 20): 3
Staining level 1+ (light brown), number of tissues (Liver cancer, number 20): 11
Staining level 2+ (mid-brown), number of tissues (Liver cancer, number 20): 6
Positive rate (Lung cancer): 88.24%
Sensitivity response rate (Lung cancer): 88.24%
Specificity (Lung cancer): 91.67%
Tumor tissues specifically bound (positive/total) (Lung cancer): 60/68
Staining level 0 (no visible staining), number of tissues (Lung cancer, number 68): 8
Staining level 1+ (light brown), number of tissues (Lung cancer, number 68): 5
Staining level 2+ (mid-brown), number of tissues (Lung cancer, number 68): 23
Staining level 3+ (dark brown), number of tissues (Lung cancer, number 68): 32
Positive rate (Mammary cancer): 90.00%
Sensitivity response rate (Mammary cancer): 90.00%
Specificity (Mammary cancer): 77.50%
Staining level 0 (no visible staining), number of tissues (Mammary cancer, number 40): 4
Staining level 1+ (light brown), number of tissues (Mammary cancer, number 40): 6
Staining level 2+ (mid-brown), number of tissues (Mammary cancer, number 40): 11
Staining level 3+ (dark brown), number of tissues (Mammary cancer, number 40): 19
Positive rate (Mammary tissue): 22.50%
Staining level 0 (no visible staining), number of tissues (Mammary tissue, number 40): 31
Staining level 1+ (light brown), number of tissues (Mammary tissue, number 40): 5
Staining level 2+ (mid-brown), number of tissues (Mammary tissue, number 40): 2
Staining level 3+ (dark brown), number of tissues (Mammary tissue, number 40): 2
Positive rate (Normal cervix uteri): 0%
Staining level 0 (no visible staining), number of tissues (Normal cervix uteri, number 4): 4
Staining level 1+ (light brown), number of tissues (Normal cervix uteri, number 4): 0
Staining level 2+ (mid-brown), number of tissues (Normal cervix uteri, number 4): 0
Staining level 3+ (dark brown), number of tissues (Normal cervix uteri, number 4): 0
Positive rate (Normal colon): 16.00%
Staining level 0 (no visible staining), number of tissues (Normal colon, number 50): 42
Staining level 1+ (light brown), number of tissues (Normal colon, number 50): 5
Staining level 2+ (mid-brown), number of tissues (Normal colon, number 50): 2
Staining level 3+ (dark brown), number of tissues (Normal colon, number 50): 1
Positive rate (Normal esophagus): 18.75%
Staining level 0 (no visible staining), number of tissues (Normal esophagus, number 16): 13
Staining level 1+ (light brown), number of tissues (Normal esophagus, number 16): 3
Staining level 2+ (mid-brown), number of tissues (Normal esophagus, number 16): 0
Staining level 3+ (dark brown), number of tissues (Normal esophagus, number 16): 0
Positive rate (Normal liver): 25.00%
Staining level 0 (no visible staining), number of tissues (Normal liver, number 4): 3
Staining level 1+ (light brown), number of tissues (Normal liver, number 4): 0
Staining level 2+ (mid-brown), number of tissues (Normal liver, number 4): 1
Staining level 3+ (dark brown), number of tissues (Normal liver, number 4): 0
Positive rate (Normal lung): 8.33%
Staining level 0 (no visible staining), number of tissues (Normal lung, number 12): 10
Staining level 1+ (light brown), number of tissues (Normal lung, number 12): 2
Staining level 2+ (mid-brown), number of tissues (Normal lung, number 12): 0
Staining level 3+ (dark brown), number of tissues (Normal lung, number 12): 0
Positive rate (Normal ovary): 0%
Staining level 0 (no visible staining), number of tissues (Normal ovary, number 12): 12
Staining level 1+ (light brown), number of tissues (Normal ovary, number 12): 0
Staining level 2+ (mid-brown), number of tissues (Normal ovary, number 12): 0
Staining level 3+ (dark brown), number of tissues (Normal ovary, number 12): 0
Positive rate (Ovary cancer): 75%
Sensitivity response rate (Ovary cancer): 75.00%
Specificity (Ovary cancer): 100%
Staining level 0 (no visible staining), number of tissues (Ovary cancer, number 12): 3
Staining level 1+ (light brown), number of tissues (Ovary cancer, number 12): 2
Staining level 2+ (mid-brown), number of tissues (Ovary cancer, number 12): 3
Staining level 3+ (dark brown), number of tissues (Ovary cancer, number 12): 4
Tumor tissues specifically bound (positive/total) (breast cancer): 36/40
Positive rate (cervical cancer): 85.00%
Sensitivity response rate (cervical cancer): 85.00%
Specificity (cervical cancer): 100%
Tumor tissues specifically bound (positive/total) (cervical cancer): 17/20
Staining level 0 (no visible staining), number of tissues (cervical cancer, number 20): 3
Staining level 1+ (light brown), number of tissues (cervical cancer, number 20): 2
Staining level 2+ (mid-brown), number of tissues (cervical cancer, number 20): 5
Staining level 3+ (dark brown), number of tissues (cervical cancer, number 20): 10
Positive rate (gastric cancer): 78.26%
Sensitivity response rate (gastric cancer): 78.26%
Specificity (gastric cancer): 80.95%
Staining level 0 (no visible staining), number of tissues (gastric cancer, number 23): 5
Staining level 1+ (light brown), number of tissues (gastric cancer, number 23): 1
Staining level 2+ (mid-brown), number of tissues (gastric cancer, number 23): 7
Staining level 3+ (dark brown), number of tissues (gastric cancer, number 23): 10
Positive rate (normal stomach): 19.05%
Staining level 0 (no visible staining), number of tissues (normal stomach, number 21): 17
Staining level 1+ (light brown), number of tissues (normal stomach, number 21): 3
Staining level 2+ (mid-brown), number of tissues (normal stomach, number 21): 1
Staining level 3+ (dark brown), number of tissues (normal stomach, number 21): 0
Tumor tissues specifically bound (positive/total) (ovarian cancer): 9/12
Tumor tissues specifically bound (positive/total) (stomach cancer): 18/23
